Results taken from US20100015650.

Molecular target: T1, BRB1 tyrosine kinase substrate peptide
T1 chain: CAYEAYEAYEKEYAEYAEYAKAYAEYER

B1: TNK1 (protein)
chain: MLPEAGSLWLLKLLRDIQLAQFYWPILEELNVTRPEHFDFVKPEDLDGIGMGRPAQRRLSEALKRLRSGPKSKNWVYKILGGFAPEHKEPTLPSDSPRHLPEPEGGLKCLIPEGAVCRGELLGSGCFGVVHRGLWTLPSGKSVPVAVKSLRVGPEGPMGTELGDFLREVSVMMNLEHPHVLRLHGLVLGQPLQMVMELAPLGSLHARLTAPAPTPPLLVALLCLFLRQLAGAMAYLGARGLVHRDLATRNLLLASPRTIKVADFGLVRPLGGARGRYVMGGPRPIPYAWCAPESLRHGAFSSASDVWMFGVTLWEMFSGGEEPWAGVPPYLILQRLEDRARLPRPPLCSRALYSLALRCWAPHPADRPSFSHLEGLLQEAGPSEACCVRDVTEPGALRMETGDPITVIEGSSSFHSPDSTIWKGQNGRTFKVGSFPASAVTLADAGGLPATRPVHRGTPARGDQHPGSIDGDRKKANLWDAPPARGQRRNMPLERMKGISRSLESVLSLGPRPTGGGSSPPEIRQARAVPQGPPGLPPRPPLSSSSPQPSQPSRERLPWPKRKPPHNHPMGMPGARKAAALSGGLLSDPELQRKIMEVELSVHGVTHQECQTALGATGGDVVSAIRNLKVDQLFHLSSRSRADCWRILEHYQWDLSAASRYVLARP
Signal to Noise Ratio with BRB1 Peptide (TR-FRET kinase assay; kinase 1 nM): 6.8

B2: TXK (protein)
chain: MILSSYNTIQSVFCCCCCCSVQKRQMRTQISLSTDEELPEKYTQRRRPWLSQLSNKKQSNTGRVQPSKRKPLPPLPPSEVAEEKIQVKALYDFLPREPCNLALRRAEEYLILEKYNPHWWKARDRLGNEGLIPSNYVTENKITNLEIYEWYHRNITRNQAEHLLRQESKEGAFIVRDSRHLGSYTISVFMGARRSTEAAIKHYQIKKNDSGQWYVAERHAFQSIPELIWYHQHNAAGLMTRLRYPVGLMGSCLPATAGFSYEKWEIDPSELAFIKEIGSGQFGVVHLGEWRSHIQVAIKAINEGSMSEEDFIEEAKVMMKLSHSKLVQLYGVCIQRKPLYIVTEFMENGCLLNYLRENKGKLRKEMLLSVCQDICEGMEYLERNGYIHRDLAARNCLVSSTCIVKISDFGMTRYVLDDEYVSSFGAKFPIKWSPPEVFLFNKYSSKSDVWSFGVLMWEVFTEGKMPFENKSNLQVVEAISEGFRLYRPHLAPMSIYEVMYSCWHEKPEGRPTFAELLRAVTEIAETW
Signal to Noise Ratio with BRB1 Peptide (TR-FRET kinase assay; kinase 3 nM): 5.9

B3: TYK2 (protein)
chain: PHNLADVLTVNPDSPASDPTVFHKRYLKKIRDLGEGHFGKVSLYCYDPTNDGTGEMVAVKALKADCGPQHRSGWKQEIDILRTLYHEHIIKYKGCCEDQGEKSLQLVMEYVPLGSLRDYLPRHSIGLAQLLLFAQQICEGMAYLHAQHYIHRDLAARNVLLDNDRLVKIGDFGLAKAVPEGHEYYRVREDGDSPVFWYAPECLKEYKFYYASDVWSFGVTLYELLTHCDSSQSPPTKFLELIGIAQGQMTVLRLTELLERGERLPRPDKCPCEVYHLMKNCWETEASFRPTFENLIPILKTVHEKYQGQAPSVFSVC
Signal to Noise ratio with BRB1 Peptide (TR-FRET kinase assay; kinase 4 nM): 7.3

B4: ZAP70 (protein)
chain: MPDPAAHLPFFYGSISRAEAEEHLKLAGMADGLFLLRQCLRSLGGYVLSLVHDVRFHHFPIERQLNGTYAIAGGKAHCGPAELCEFYSRDPDGLPCNLRKPCNRPSGLEPQPGVFDCLRDAMVRDYVRQTWKLEGEALEQAIISQAPQVEKLIATTAHERMPWYHSSLTREEAERKLYSGAQTDGKFLLRPRKEQGTYALSLIYGKTVYHYLISQDKAGKYCIPEGTKFDTLWQLVEYLKLKADGLIYCLKEACPNSSASNASGAAAPTLPAHPSTLTHPQRRIDTLNSDGYTPEPARITSPDKPRPMPMDTSVYESPYSDPEELKDKKLFLKRDNLLIADIELGCGNFGSVRQGVYRMRKKQIDVAIKVLKQGTEKADTEEMMREAQIMHQLDNPYIVRLIGVCQAEALMLVMEMAGGGPLHKFLVGKREEIPVSNVAELLHQVSMGMKYLEEKNFVHRDLAARNVLLVNRHYAKISDFGLSKALGADDSYYTARSAGKWPLKWYAPECINFRKFSSRSDVWSYGVTMWEALSYGQKPYKKMKGPEVMAFIEQGKRMECPPECPPELYALMSDCWIYKWEDRPDFLTVEQRMRACYYSLASKVEGPPGSTQKAEAACA
Signal to Noise ratio with BRB1 Peptide (TR-FRET kinase assay; kinase 4 nM): 7.6

B5: ALK (protein)
chain: VYRRKHQELQAMQMELQSPEYKLSKLRTSTIMTDYNPNYCFAGKTSSISDLKEVPRKNITLIRGLGHGAFGEVYEGQVSGMPNDPSPLQVAVKTLPEVCSEQDELDFLMEALIISKFNHQNIVRCIGVSLQSLPRFILLELMAGGDLKSFLRETRPRPSQPSSLAMLDLLHVARDIACGCQYLEENHFIHRDIAARNCLLTCPGPGRVAKIGDFGMARDIYRASYYRKGGCAMLPVKWMPPEAFMEGIFTSKTDTWSFGVLLWEIFSLGYMPYPSKSNQEVLEFVTSGGRMDPPKNCPGPVYRIMTQCWQHQPEDRPNFAIILERIEYCTQDPDVINTALPIEYGPLVEEEEKVPVRPKDPEGVPPLLVSQQAKREEERSPAAPPPLPTTSSGKAAKKPTAAEISVRVPRGPAVEGGHVNMAFSQSNPPSELHKVHGSRNKPTSLWNPTYGSWFTEKPTKKNNPIAKKEPHDRGNLGLEGSCTVPPNVATGRLPGASLLLEPSSLTANMKEVPLFRLRHFPCGNVNYGYQQQGLPLEAATAPGAGHYEDTILKSKNSMNQPGP
Signal to Noise ratio with BRB1 Peptide (TR-FRET kinase assay; kinase 4 nM): 8.8

B6: AXL (protein)
chain: HRRKKETRYGEVFEPTVERGELVVRYRVRKSYSRRTTEATLNSLGISEELKEKLRDVMVDRHKVALGKTLGEGEFGAVMEGQLNQDDSILKVAVKTMKIAICTRSELEDFLSEAVCMKEFDHPNVMRLIGVCFQGSERESFPAPVVILPFMKHGDLHSFLLYSRLGDQPVYLPTQMLVKFMADIASGMEYLSTKRFIHRDLAARNCMLNENMSVCVADFGLSKKIYNGDYYRQGRIAKMPVKWIAIESLADRVYTSKSDVWSFGVTMWEIATRGQTPYPGVENSEIYDYLRQGNRLKQPADCLDGLYALMSRCWELNPQDRPSFTELREDLENTLKALPPAQEPDEILYVNMDEGGGYPEPPGAAGGADPPTQPDPKDSCSCLTAAEVHPAGRYVLCPSTTPSPAQPADRGSPAAPGQEDGA
Signal to Noise ratio with BRB1 Peptide (TR-FRET kinase assay; kinase 4 nM): 1.8

B7: DDR1 (protein)
chain: RRLLSKAERRVLEEELTVHLSVPGDTILINNRPGPREPPPYQEPRPRGNPPHSAPCVPNGSALLLSNPAYRLLLATYARPPRGPGPPTPAWAKPTNTQAYSGDYMEPEKPGAPLLPPPPQNSVPHYAEADIVTLQGVTGGNTYAVPALPPGAVGDGPPRVDFPRSRLRFKEKLGEGQFGEVHLCEVDSPQDLVSLDFPLNVRKGHPLLVAVKILRPDATKNARNDFLKEVKIMSRLKDPNIIRLLGVCVQDDPLCMITDYMENGDLNQFLSAHQLEDKAAEGAPGDGQAAQGPTISYPMLLHVAAQIASGMRYLATLNFVHRDLATRNCLVGENFTIKIADFGMSRNLYAGDYYRVQGRAVLPIRWMAWECILMGKFTTASDVWAFGVTLWEVLMLCRAQPFGQLTDEQVIENAGEFFRDQGRQVYLSRPPACPQGLYELMLRCWSRESEQRPPFSQLHRFLAEDALNTV
Signal to Noise ratio with BRB1 Peptide (TR-FRET kinase assay; kinase 0.5 nM): 1

B8: DDR2 (protein)
chain: RQFWQKMLEKASRRMLDDEMTVSLSLPSDSSMFNNNRSSSPSEQGSNSTYDRIFPLRPDYQEPSRLIRKLPEFAPGEEESGCSGVVKPVQPSGPEGVPHYAEADIVNLQGVTGGNTYSVPAVTMDLLSGKDVAVEEFPRKLLTFKEKLGEGQFGEVHLCEVEGMEKFKDKDFALDVSANQPVLVAVKMLRADANKNARNDFLKEIKIMSRLKDPNIIHLLAVCITDDPLCMITEYMENGDLNQFLSRHEPPNSSSSDVRTVSYTNLKFMATQIASGMKYLSSLNFVHRDLATRNCLVGKNYTIKIADFGMSRNLYSGDYYRIQGRAVLPIRWMSWESILLGKFTTASDVWAFGVTLWETFTFCQEQPYSQLSDEQVIENTGEFFRDQGRQTYLPQPAICPDSVYKLMLSCWRRDTKNRPSFQEIHLLLLQQGDE
Signal to Noise ratio with BRB1 Peptide (TR-FRET kinase assay; kinase 0.5 nM): 1

B9: ACK (protein)
chain: GEGPLQSLTCLIGEKDLRLLEKLGDGSFGVVRRGEWDAPSGKTVSVAVKCLKPDVLSQPEAMDDFIREVNAMHSLDHRNLIRLYGVVLTPPMKMVTELAPLGSLLDRLRKHQGHFLLGTLSRYAVQVAEGMGYLESKRFIHRDLAARNLLLATRDLVKIGDFGLMRALPQNDDHYVMQEHRKVPFAWCAPESLKTRTFSHASDTWMFGVTLWEMFTYGQEPWIGLNGSQILHKIDKEGERLPRPEDCPQDIYNVMVQCWAHKPEDRPTFVALRDFLLEAQPTDMRALQDFEEPDKLHIQMNDVITVIEGRAENYWWRGQNTRTLCVGPFPRNVVTSVAGLSAQDISQPLQNSFIHTGHGDSDPRHCW
Signal to Noise Ratio with BRB1 Peptide (TR-FRET kinase assay; kinase 20 nM): 17.3

B10: EphA1 (protein)
chain: RSRRAQRQRQQRQRDRATDVDREDKLWLKPYVDLQAYEDPAQGALDFTRELDPAWLMVDTVIGEGEFGEVYRGTLRLPSQDCKTVAIKTLKDTSPGGQWWNFLREATIMGQFSHPHILHLEGVVTKRKPIMIITEFMENGALDAFLREREDQLVPGQLVAMLQGIASGMNYLSNHNYVHRDLAARNILVNQNLCCKVSDFGLTRLLDDFDGTYETQGGKIPIRWTAPEAIAHRIFTTASDVWSFGIVMWEVLSFGDKPYGEMSNQEVMKSIEDGYRLPPPVDCPAPLYELMKNCWAYDRARRPHFQKLQAHLEQLLANPHSLRTIANFDPRMTLRLPSLSGSDGIPYRTVSEWLESIRMKRYILHFHSAGLDTMECVLELTAEDLTQMGITLPGHQKRILCSIQGFKD
Signal to Noise ratio with BRB1 Peptide (TR-FRET kinase assay; kinase 0.5 nM): 10.8

B11: EphA2 (protein)
chain: HRRRKNQRARQSPEDVYFSKSEQLKPLKTYVDPHTYEDPNQAVLKFTTEIHPSCVTRQKVIGAGEFGEVYKGMLKTSSGKKEVPVAIKTLKAGYTEKQRVDFLGEAGIMGQFSHHNIIRLEGVISKYKPMMIITEYMENGALDKFLREKDGEFSVLQLVGMLRGIAAGMKYLANMNYVHRDLAARNILVNSNLVCKVSDFGLSRVLEDDPEATYTTSGGKIPIRWTAPEAISYRKFTSASDVWSFGIVMWEVMTYGERPYWELSNHEVMKAINDGFRLPTPMDCPSAIYQLMMQCWQQERARRPKFADIVSILDKLIRAPDSLKTLADFDPRVSIRLPSTSGSEGVPFRTVSEWLESIKMQQYTEHFMAAGYTAIEKVVQMTNDDIKRIGVRLPGHQKRIAYSLLGLKDQVNTVGIPI
Signal to Noise ratio with BRB1 Peptide (TR-FRET kinase assay; kinase 0.25 nM): 26.9

B12: EphA3 (protein)
chain: RFCGYKSKHGADEKRLHFGNGHLKLPGLRTYVDPHTYEDPTQAVHEFAKELDATNISIDKVVGAGEFGEVCSGRLKLPSKKEISVAIKTLKVGYTEKQRRDFLGEASIMGQFDHPNIIRLEGVVTKSKPVMIVTEYMENGSLDSFLRKHDAQFTVIQLVGMLRGIASGMKYLSDMGYVHRDLAARNILINSNLVCKVSDFGLSRVLEDDPEAAYTTRGGKIPIRWTSPEAIAYRKFTSASDVWSYGIVLWEVMSYGERPYWEMSNQDVIKAVDEGYRLPPPMDCPAALYQLMLDCWQKDRNNRPKFEQIVSILDKLIRNPGSLKIITSAAARPSNLLLDQSNVDITTFRTTGDWLNGVWTAHCKEIFTGVEYSSCDTIAKISTDDMKKVGVTVVGPQKKIISSIKALETQSKNGPVPV
Signal to Noise ratio with BRB1 Peptide (TR-FRET kinase assay; kinase 0.5 nM): 22.4
